Legend:
[1] = biological target: T1, linear tetra-ubiquitin (UniProt P0CG48 1-76; P0CG48 1-76; P0CG48 1-76; P0CG48 1-76); test: co-IP; purified recombinant HA-N4BP1 or domain deletion forms incubated with ubiquitin chains in assay buffer (50 mM Tris-HCl pH 7.4, 150 mM NaCl, 1 mM dithiothreitol) for 2 h at 4 °C; immunoprecipitation with anti-HA (mouse IgG as control); immunoblot; conditions: both partners purified
T1 construct: ubiquitin, unit 1 of 4; ubiquitin, unit 2 of 4; ubiquitin, unit 3 of 4; ubiquitin, unit 4 of 4; also called linear tetra-ubiquitin chains; source: bought: LifeSensors (recombinant)
T1 sequence (P0CG48 1-304, one chain of several): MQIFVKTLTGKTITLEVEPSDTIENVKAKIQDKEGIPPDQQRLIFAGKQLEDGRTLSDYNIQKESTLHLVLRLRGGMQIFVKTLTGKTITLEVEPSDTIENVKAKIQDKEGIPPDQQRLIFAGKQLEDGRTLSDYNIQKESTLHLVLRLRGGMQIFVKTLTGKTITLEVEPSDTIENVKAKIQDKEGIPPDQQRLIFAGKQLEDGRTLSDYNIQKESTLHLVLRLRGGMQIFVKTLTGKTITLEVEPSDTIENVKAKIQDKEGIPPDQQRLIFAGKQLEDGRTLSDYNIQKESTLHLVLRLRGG

[2] = biological target: T2, linear hepta-ubiquitin (UniProt P0CG48 1-76; P0CG48 1-76; P0CG48 1-76; P0CG48 1-76; P0CG48 1-76; P0CG48 1-76; …); test: as above; conditions: both partners purified
T2 construct: ubiquitin, unit 1 of 7; ubiquitin, unit 2 of 7; ubiquitin, unit 3 of 7; ubiquitin, unit 4 of 7; ubiquitin, unit 5 of 7; ubiquitin, unit 6 of 7; ubiquitin, unit 7 of 7; The reagents name a supplier only for the tetra-ubiquitins; also called linear ubiquitin chains; linear polyubiquitin chains
T2 sequence (P0CG48 1-532, one chain of several): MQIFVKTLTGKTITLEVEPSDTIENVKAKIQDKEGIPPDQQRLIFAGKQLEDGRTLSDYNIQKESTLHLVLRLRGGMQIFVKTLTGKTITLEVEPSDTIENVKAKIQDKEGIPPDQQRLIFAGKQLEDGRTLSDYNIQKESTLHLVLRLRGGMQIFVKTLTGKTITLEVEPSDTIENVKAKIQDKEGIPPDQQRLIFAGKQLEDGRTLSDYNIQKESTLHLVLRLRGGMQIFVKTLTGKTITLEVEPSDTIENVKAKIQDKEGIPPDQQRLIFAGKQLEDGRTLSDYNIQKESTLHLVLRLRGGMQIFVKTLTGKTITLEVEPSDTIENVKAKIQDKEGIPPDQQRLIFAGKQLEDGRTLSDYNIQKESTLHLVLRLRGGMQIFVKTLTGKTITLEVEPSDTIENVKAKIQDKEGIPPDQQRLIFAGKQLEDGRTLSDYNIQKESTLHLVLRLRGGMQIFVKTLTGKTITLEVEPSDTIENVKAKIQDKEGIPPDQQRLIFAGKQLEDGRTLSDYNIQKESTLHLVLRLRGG

binding result [1]: binds | binding result [2]: binds
B1: HA-tagged N4BP1 (full-length) (natural protein, UniProt O75113 1-896, looked up)
chain: MAARAVLDEFTAPAEKAELLEQSRGRIEGLFGVSLAVLGALGAEEPLPARIWLQLCGAQEAVHSAKEYIKGICEPELEERECYPKDMHCIFVGAESLFLKSLIQDTCADLCILDIGLLGIRGSAEAVVMARSHIQQFVKLFENKENLPSSQKESEVKREFKQFVEAHADNYTMDLLILPTSLKKELLTLTQGEENLFETGDDEVIEMRDSQQTEFTQNAATGLNISRDETVLQEEARNKAGTPVSELTKQMDTVLSSSPDVLFDPINGLTPDEEALSNERICQKRRFSDSEERHTKKQFSLENVQEGEILHDAKTLAGNVIADLSDSSADSENLSPDIKETTEEMEYNILVNFFKTMGYSQEIVEKVIKVYGPSTEPLLLLEEIEKENKRFQEDREFSAGTVYPETNKTKNKGVYSSTNELTTDSTPKKTQAHTQQNMVEKFSQLPFKVEAKPCTSNCRINTFRTVPIEQKHEVWGSNQNYICNTDPETDGLSPSVASPSPKEVNFVSRGASSHQPRVPLFPENGLHQQPEPLLPNNMKSACEKRLGCCSSPHSKPNCSTLSPPMPLPQLLPSVTDARSAGPSDHIDSSVTGVQRFRDTLKIPYKLELKNEPGRTDLKHIVIDGSNVAITHGLKKFFSCRGIAIAVEYFWKLGNRNITVFVPQWRTRRDPNVTEQHFLTQLQELGILSLTPARMVFGERIASHDDRFLLHLADKTGGIIVTNDNFREFVNESVSWREIITKRLLQYTFVGDIFMVPDDPLGRSGPRLEEFLQKEVCLRDMQPLLSALPNVGMFDPSFRVPGTQAASTSHQPPTRIQGAPSSHWLPQQPHFPLLPALPSLQQNLPMPAQRSSAETNELREALLKIFPDSEQRLKIDQILVAHPYMKDLNALSAMVLD
notes: the vector of the other experiments is only called a mammalian expression vector; also called HA-N4BP1; F.L; source: HEK293T or N4BP1-/- HEK293T, transfected, in lysate; also overexpressed in HEK293T and purified (immunoprecipitation, HA peptide elution, Superdex 200 gel filtration); not shown: HA, N-terminal, kept
